Experimental data published in US20240294617A1 (Ablynx, published 2024).
Each block holds one binder with its values, some of them ahead of it.

Tests used:
[1] = target: T1, human serum albumin (Sigma-Aldrich A3782) (human, UniProt P02768 25-609); experiment: SPR (ProteOn XPR36), SA immobilised, pH 7.4
T1 construct: Bought protein; also called HSA; human SA

[2] = target: T2, cynomolgus monkey serum albumin (generated in-house) (cynomolgus monkey, UniProt A2V9Z4 25-608, limits assumed); experiment: SPR (ProteOn XPR36), SA immobilised, pH 7.4
T2 construct: also called cyno SA

[3] = target: T3, rat serum albumin (Sigma-Aldrich A4538) (rat, UniProt P02770 25-608); experiment: SPR (ProteOn XPR36), SA immobilised, pH 7.4
T3 construct: Bought protein; also called rat SA

[4] = target: T4, mouse serum albumin (Albumin Bioscience 2601) (mouse, UniProt P07724 25-608); experiment: SPR (ProteOn XPR36), SA immobilised, pH 7.4
T4 construct: Bought protein; also called mouse SA

[5] = target: T5, guinea pig serum albumin (Gentaur GPSA62) (guinea pig); experiment: SPR (ProteOn XPR36), SA immobilised, pH 7.4
T5 construct: also called guinea pig SA

[6] = target: T6, dog serum albumin (Abcam 119814) (dog, UniProt P49822 25-608); experiment: SPR (ProteOn XPR36), SA immobilised, pH 7.4
T6 construct: Bought protein; also called dog SA

[7] = target: T7, pig serum albumin (Sigma-Aldrich A4414) (pig, UniProt P08835 25-607); experiment: SPR (ProteOn XPR36), SA immobilised, pH 7.4
T7 construct: Bought protein; also called pig SA

[8] = target: T1, human serum albumin (Sigma-Aldrich …); experiment: SPR (ProteOn), HSA immobilised, 500 nM injected, dissociation at pH 5.0
[9] = target: T1, human serum albumin (Sigma-Aldrich …); experiment: SPR (ProteOn), HSA immobilised, 500 nM injected, dissociation at pH 6.0
[10] = target: T1, human serum albumin (Sigma-Aldrich …); experiment: SPR (ProteOn), HSA immobilised, 500 nM injected, dissociation at pH 7.4
[11] = target: T1, human serum albumin (Sigma-Aldrich …); experiment: competition ELISA on coated HSA

Kd [1]: 0.046 nM
koff [1]: 3.7e-05 s⁻¹
kon [1]: 790000 M⁻¹ s⁻¹
Kd [2]: 0.016 nM
koff [2]: 1.4e-05 s⁻¹
kon [2]: 830000 M⁻¹ s⁻¹
Kd [3]: 0.012 nM
koff [3]: 1.5e-05 s⁻¹
kon [3]: 1.2e+06 M⁻¹ s⁻¹
Kd [4]: 0.016 nM
koff [4]: 1.5e-05 s⁻¹
kon [4]: 940000 M⁻¹ s⁻¹
Kd [5]: 0.059 nM
koff [5]: 5.6e-05 s⁻¹
kon [5]: 940000 M⁻¹ s⁻¹
Kd [6]: 2.8 nM
koff [6]: 0.0025 s⁻¹
kon [6]: 900000 M⁻¹ s⁻¹
Kd [7]: 290 nM
koff [7]: 0.036 s⁻¹
kon [7]: 120000 M⁻¹ s⁻¹
koff [8]: 7.5e-05 s⁻¹
koff [9]: 6.7e-05 s⁻¹
koff [10]: 6e-05 s⁻¹
B1: serum albumin binder of SEQ ID NO:19 (invention) (VHH)
VHH: EVQLVESGGGVVQPGGSLRLSCAASGSTISSYVMGWFRRAPGKEREFVAAISRSGGYTYYADSVKGRFTISRDNSKKTAYLQMNSLRPEDTALYYCAAGRYSAWYSQSYEYDYWGQGTLVTVSS
notes: Monovalent Nanobody; also called T023500043

binding result [11]: binds
B2: His6Flag3-SEQ ID NO:20 (VHH, not shown: small tags and cut ends)
VHH: EVQLVESGGGVVQPGGSLRLSCAASGSNISSYVMGWFRRAPGKEREFVAAISRSGGYTYYADSVKGRFTISRDNSKKTAYLQMNSLRPEDTALYYCAAGRYSAWYSQSYEYDYWGQGTLVTVSS
